Laboratory results: patent US20110293511A1, “SPECIFIC BINDING PROTEINS AND USES THEREOF” (priority 2009, published 2011)
Values joined by “and” are separate entries in the source; they are usually repeats but may differ in a detail not shown here. Equal entries are not always repeated. “Also recorded” adds a separate entry of the source. Marks after values point to notes of the source that are not given here.

What was measured:
[1] = target: T1, Peptide C (C-terminal biotinylated de2-7 peptide) (Homo sapiens, UniProt P00533, DELINS30-297G); test: BIAcore with immobilized Peptide C; type: binding; conditions: mAbL8A4 even at 6.25 nM, mAb806 up to 100 nM
T1 construct: purchased Biosource, Camarillo, Calif
Method: Peptide C was immobilized on a Streptavidin microsensor chip at a surface density of 350RU (+/−30RU). Serial dilutions of mAbs were tested for reactivity with the peptide. Blocking experiments using non-biotinylated peptide were performed to assess specificity.

[2] = system: panel of 12 different malignancies; test: immunohistochemistry of tumor panel; type: binding, human
Method: Immunohistochemical analysis was performed using […] sections of fresh frozen tissue applied to histology slides and fixed for 10 minutes in cold acetone. Bound primary antibody was detected with biotinylated horse anti-mouse antibody followed by an avidin-biotin-complex reaction. Diaminobenzidine tetrahydrochloride (DAB) was used as chromogen. The extent of the immunohistochemical reactivity in tissues was estimated by light microscopy and graded according to the number of immunoreactive cells in 25% increments as follows:
The extent of de2-7 EGFR in other tumor types was examined using a panel of 12 different malignancies. […] This staining was strongly dependent on antibody concentration used and was considered nonspecific background reactivity.

HN5 and MDA-468 cells = test: binding to cell lines by FACS; parameters: species or system human; conditions: HN5 and MDA-468, both cell lines
[3] = system: U87MG.DK brain xenografts; test: intracranial glioma xenograft treatment; type: in vivo, nude mice; conditions: i.p. day 0 through 14
A431 xenografts = test: s.c. xenograft therapy study; type: in vivo, nude mice; conditions: for mean tumor volume: day 13, 1 mg injection
Method: Tumor cells (3×10^6) in […] of PBS were inoculated subcutaneously into both flanks of 4-6 week old female nude mice (Animal Research Centre, Western Australia, Australia). […] Treatment was continued for a total of 6 doses, 3 times per week for 2 weeks. In the established model, treatment was started when tumors had reached a mean volume of 65±6.42 mm^3 (U87MG.Δ2-7), 84±9.07 mm3 (U87MG), 73±7.5 mm^3 (U87MG.wtEGFR) or 201±19.09 mm^3 (A431 tumors). Tumor volume in mm^3 was determined using the formula […], where length was the longest axis and width the measurement at right angles to the length (Clark et al. (2000) Therapeutic efficacy of anti-Lewis (y) humanized 3S 193 radioimmunotherapy in a breast cancer model: enhanced activity when combined with Taxol chemotherapy. Clin. Cancer Res. 6, 3621-3628). Data was expressed as mean tumor volume±S.E. for each treatment group. Statistical analysis was performed at given time points using Student's t-test. Animals were euthanized when the xenografts reached an approximate volume of 1.5 cm^3 and the tumors excised for histological examination. This research project was approved by the Animal Ethics Committee of the Austin and Repatriation Medical Centre.
AG1478 (4-(3-Chloroanilino)-6,7-dimethoxyquinazoline) is a potent and selective inhibitor of the EGFR kinase versus HER2-neu and platelet-derived growth factor receptor kinase (Calbiochem Cat. No. 658552). […] The results are illustrated in FIG. 12. […] 400 μg AG1478 was administered at 0, 2, 4, 7, 9, and 11 days post xenograft.
With respect to “(iv),” different groups of mice received either 0.5 mg/injection of each mAb, or 0.25 mg/injection of each mAb.
Finally, the fourth group of mice, which had been inoculated with A431 cells, received injections as in groups I and III, at 8, 10, 12 and 14 days after inoculation. At the start, the average tumor size was 71 mm^3.
To establish xenografts, mice were injected subcutaneously into the right and left inguinal mammary line with 1×10^6 A431 adenocarcinoma cells or 1×10^6 U87MG.de2-7 glioma cells in 100 μl of PBS. Tumor volume (TV) was calculated by the formula […] where length was the longest axis and width the measurement at right angles to length. […] Therapy was administered on days 6, 8, 11, 13, 15 and 18 for A431, and days 4, 6, 8, 11, 13 and 15 for the U87MG.de2-7 cell lines respectively. Mean±SEM tumor volumes until termination of the experiments due to ethical considerations of tumor burden are presented in FIG. 91 for the A431 xenograft until day 25, and in FIG. 92 for U87MG.de2-7 xenografts until day 31.

A431 cells = test: binding to cell lines by FACS; parameters: species or system human
deglycosylated sEGFR = target: T2, deglycosylated sEGFR (Homo sapiens, UniProt P00533); test: immunoblot of PNGase F treated sEGFR; type: binding
T2 construct: sEGFR is the recombinant extracellular domain (amino acids 1-621) of the wild-type EGFR); host or cells: CHO cells
Method: To determine if carbohydrate structures are directly involved in the mAb806 epitope, the recombinant sEGFR expressed in CHO cells was treated with PNGase F to remove N-linked glycosylation.

DU145 xenografts = test: s.c. xenograft therapy study; type: in vivo, nude mice; conditions: day 67; 1 mg i.p.; control 1145
U87MG brain xenografts = test: intracranial glioma xenograft treatment; type: in vivo, nude mice; conditions: i.p. day 0 through 14

B1: mAb806: murine IgG2b monoclonal antibody, clone 806, ATCC PTA-3858; VH SEQ ID NO:2, VL SEQ ID NO:4 (antibody, listed as Mus musculus, V domains shown)
VH: MRVLILLWLFTAFPGVLSDVQLQESGPSLVKPSQSLSLTCTVTGYSITSDFAWNWIRQFPGNKLEWMGYISYSGNTRYNPSLKSRISITRDTSKNQFFLQLNSVTIEDTATYYCVTAGRGFPYWGQGTLVTVSA
VL: MVSTAQFLAFLLLWFPGARCDILMTQSPSSMSVSLGDTVSITCHSSQDINSNIGWLQQRPGKSFKGLIYHGTNLDDEVPSRFSGSGSGADYSLTISSLESEDFADYYCVQYAQFPWTFGGGTKLEIKR
With B1 the “reactivity with Peptide C” value [1] was “did not show detectable specific reactivity”, the “positive tumors / tumors tested” value ([2]; Colonic carcinoma) was 0/10 and the “positive tumors / tumors tested” value ([2]; Head + neck cancer (sqcc)) was 7/11. For the same molecule, the “positive tumors / tumors tested” value ([2]; Leiomyosarcoma) was 0/5, the “positive tumors / tumors tested” value ([2]; Liposarcoma) was 0/5* and the “positive tumors / tumors tested” value ([2]; Lung (sqcc, adeno, neuroend)) was 6/12. The “positive tumors / tumors tested” value ([2]; Malignant melanoma metastases) was 0/10, the “positive tumors / tumors tested” value ([2]; Mammary gland) was 1/10 and the “positive tumors / tumors tested” value ([2]; Mfh Malignant fibrous histiocytoma) was 0/5*. The “positive tumors / tumors tested” value ([2]; Ovary (serous-papillary)) was 0/5, the “positive tumors / tumors tested” value ([2]; Seminoma) was 0/10 and the “positive tumors / tumors tested” value ([2]; Synovial sarcoma) was 0/5*. For the same molecule, the “positive tumors / tumors tested” value ([2]; Urinary bladder (tcc, sqcc, adeno)) was 3/10*, the “tumors with positive staining” value ([2]; head and neck tumors) was 64% and the “tumors with positive staining” value ([2]; lung carcinomas) was 50%. For the same molecule, the “tumors with positive staining” value ([2]; urinary tumors) was 30%, the FACS staining (HN5 and MDA-468 cells) was “clearly stained” and the effect on survival [3] was “did not extend survival”. For the same molecule, the mean tumor volume (A431 xenografts; established model) was 451±65.58 mm^3 and 450±70 mm^3, the “effect on xenograft growth” value (A431 xenografts; preventative model, 0.1 mg) was “significantly inhibited; also recorded: inhibited significantly” and the “reduction of tumor volume” value (A431 xenografts; preventative model, 0.1 mg mAb806, 400 μg AG1478) was “significant reduction of tumor volume”. For the same molecule, the mean tumor volume (A431 xenografts; preventative model) was 260±60.33 mm^3 and 260±60 mm^3, the FACS staining (A431 cells) was “Low, but highly reproducible, binding” and the “binding to deglycosylated sEGFR” value (deglycosylated sEGFR) was “clearly bound”. The mean tumor volume (DU145 xenografts) was 605 mm^3 and the effect on survival (U87MG brain xenografts) was “did not extend survival”.
